The values below come from patent US6723838 (Johns Hopkins, dated 2004).

In experiment [1] the target is T1, SYNGAP of rat brain (endogenous) (rat, UniProt Q9QUH6 174-1308, limits assumed).
T1 construct: Native protein in brain homogenates, deoxycholate extracts of brain membranes and cultured hippocampal neurons; runs as a doublet or triplet, so the isoform is not certain; also called 130 kDa protein in brain; doublet or triplet of proteins at 130 kDa
T1 sequence: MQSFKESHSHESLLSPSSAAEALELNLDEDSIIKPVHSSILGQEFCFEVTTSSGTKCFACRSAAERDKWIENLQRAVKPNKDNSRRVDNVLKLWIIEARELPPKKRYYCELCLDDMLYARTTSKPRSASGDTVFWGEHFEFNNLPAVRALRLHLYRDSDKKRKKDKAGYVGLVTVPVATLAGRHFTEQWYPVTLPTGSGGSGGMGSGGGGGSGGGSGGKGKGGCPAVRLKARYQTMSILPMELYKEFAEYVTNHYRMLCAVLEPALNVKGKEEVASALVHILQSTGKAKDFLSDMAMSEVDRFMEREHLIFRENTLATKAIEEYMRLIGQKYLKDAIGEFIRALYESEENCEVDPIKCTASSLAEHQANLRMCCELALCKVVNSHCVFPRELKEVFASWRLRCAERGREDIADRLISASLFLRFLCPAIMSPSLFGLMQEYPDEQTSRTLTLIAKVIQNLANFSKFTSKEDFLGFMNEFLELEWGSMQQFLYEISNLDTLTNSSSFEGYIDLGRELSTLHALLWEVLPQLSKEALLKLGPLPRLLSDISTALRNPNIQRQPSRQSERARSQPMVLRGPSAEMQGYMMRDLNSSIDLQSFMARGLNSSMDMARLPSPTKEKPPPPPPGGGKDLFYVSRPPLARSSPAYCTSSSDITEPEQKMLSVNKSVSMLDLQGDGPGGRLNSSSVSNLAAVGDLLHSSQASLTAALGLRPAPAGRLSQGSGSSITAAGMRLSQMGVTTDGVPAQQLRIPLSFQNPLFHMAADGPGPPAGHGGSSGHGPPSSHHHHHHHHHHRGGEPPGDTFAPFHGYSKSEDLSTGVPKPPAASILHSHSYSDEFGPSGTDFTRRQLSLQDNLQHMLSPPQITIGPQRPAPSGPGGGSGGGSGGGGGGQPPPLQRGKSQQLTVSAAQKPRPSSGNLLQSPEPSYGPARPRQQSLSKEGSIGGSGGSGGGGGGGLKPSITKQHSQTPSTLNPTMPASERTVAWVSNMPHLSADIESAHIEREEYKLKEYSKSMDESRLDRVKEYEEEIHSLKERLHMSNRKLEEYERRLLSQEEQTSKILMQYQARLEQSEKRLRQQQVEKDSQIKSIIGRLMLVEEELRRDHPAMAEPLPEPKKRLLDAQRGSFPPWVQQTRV
Put plainly: coimmunoprecipitation from deoxycholate solubilized rat brain membranes, immunoblot. For orientation: Immunoblotting shows a protein as a band on a membrane.
Description: Cortex and hippocampus from a male Sprague-Dawley rat, age of 4 to 6 weeks were homogenized twice using a glass-Teflon homogenizer with protease inhibitors (antipain, chymotrypsin, leupeptin, Trasylol, 0.1 mM PMSF). After determining the protein concentration of the P2 fraction by a Coomasie assay (Pierce), aliquots of the proteins at 3 mg/ml were stored at −80° C. until use. For coimmunoprecipitation, PA (300 μg per IP) was solubilized by 1.0% sodium deoxycholate followed by 0.1% Triton X-100 and the preparation was centrifuged for 10 minutes at 100,000×g. The supernatant was then used for coimmunoprecipitation.
The clarified supernatant of solubilized P2 fraction was then added to the sepharose beads and the mixture incubated for 2 to 3 hours at 4° C. […] When the antibodies were blocked with antigens, they were preincubated with the peptide at concentration of 100 µg/ml or fusion proteins at concentration of 50 µg/ml.

Experiment [2] deals with T2, SYNGAP deletion mutant 894 to 1132 (-Q*) (rat, UniProt Q9QUH6 1067-1305).
T2 construct: PCR generated deletion mutant, ends in -Q; not shown: The GAL4 two-hybrid fusion domain and its junction residues
T2 sequence: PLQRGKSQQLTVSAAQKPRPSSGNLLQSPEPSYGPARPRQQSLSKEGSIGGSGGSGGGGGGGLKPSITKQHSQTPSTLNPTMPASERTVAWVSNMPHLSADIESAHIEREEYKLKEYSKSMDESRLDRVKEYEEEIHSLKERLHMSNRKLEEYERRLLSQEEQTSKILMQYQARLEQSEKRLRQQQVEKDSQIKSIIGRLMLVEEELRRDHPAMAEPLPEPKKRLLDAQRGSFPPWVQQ
As to the kind of experiment: yeast two-hybrid, HIS3 growth without leucine, tryptophan and histidine in 100 mM 3-aminotriazole. The text has this:
(§1) The PDZ domains of PSD-95/SAP90 and SAP102 were amplified by PCR and subcloned into the yeast vector, pPC 86. PDZ domain 1 of PSD-95 covers the amino acids from 40 to 160; PDZ domain 2, from 156 to 248; and PDZ domain 3, from 298 to 403. See e.g., Cho et al., (1992) Neuron 9:929 for disclosure relating to the PSD-95 sequence.

The target of experiment [3] is T3, SYNGAP deletion mutant 894 to 1134 (-QTR*) (rat, UniProt Q9QUH6 1067-1307).
T3 construct: PCR generated deletion mutant, ends in -QTR; not shown: The GAL4 two-hybrid fusion domain and its junction residues
T3 sequence: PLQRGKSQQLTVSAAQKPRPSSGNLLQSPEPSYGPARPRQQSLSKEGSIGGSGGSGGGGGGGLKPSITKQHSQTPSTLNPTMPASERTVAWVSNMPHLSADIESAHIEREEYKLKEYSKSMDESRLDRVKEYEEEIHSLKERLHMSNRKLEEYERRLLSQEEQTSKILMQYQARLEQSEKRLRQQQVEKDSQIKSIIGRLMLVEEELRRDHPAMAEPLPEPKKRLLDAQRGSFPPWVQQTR
Described as above.
Description: as §1

B1: GluR1 subunit of rat brain (endogenous) (receptor, UniProt P19490 19-907, looked up)
chain: ANFPNNIQIGGLFPNQQSQEHAAFRFALSQLTEPPKLLPQIDIVNISDSFEMTYRFCSQFSKGVYAIFGFYERRTVNMLTSFCGALHVCFITPSFPVDTSNQFVLQLRPELQEALISIIDHYKWQTFVYIYDADRGLSVLQRVLDTAAEKNWQVTAVNILTTTEEGYRMLFQDLEKKKERLVVVDCESERLNAILGQIVKLEKNGIGYHYILANLGFMDIDLNKFKESGANVTGFQLVNYTDTIPARIMQQWRTSDSRDHTRVDWKRPKYTSALTYDGVKVMAEAFQSLRRQRIDISRRGNAGDCLANPAVPWGQGIDIQRALQQVRFEGLTGNVQFNEKGRRTNYTLHVIEMKHDGIRKIGYWNEDDKFVPAATDAQAGGDNSSVQNRTYIVTTILEDPYVMLKKNANQFEGNDRYEGYCVELAAEIAKHVGYSYRLEIVSDGKYGARDPDTKAWNGMVGELVYGRADVAVAPLTITLVREEVIDFSKPFMSLGISIMIKKPQKSKPGVFSFLDPLAYEIWMCIVFAYIGVSVVLFLVSRFSPYEWHSEEFEEGRDQTTSDQSNEFGIFNSLWFSLGAFMQQGCDISPRSLSGRIVGGVWWFFTLIIISSYTANLAAFLTVERMVSPIESAEDLAKQTEIAYGTLEAGSTKEFFRRSKIAVFEKMWTYMKSAEPSVFVRTTEEGMIRVRKSKGKYAYLLESTMNEYIEQRKPCDTMKVGGNLDSKGYGIATPKGSALRNPVNLAVLKLNEQGLLDKLKNKWWYDKGECGSGGGDSKDKTSALSLSNVAGVFYILIGGLGLAMLVALIEFCYKSRSESKRMKGFCLIPQQSINEAIRTSTLPRNSGAGASGGGGSGENGRVVSQDFPKSMQSIPCMSHSSGMPLGATGL
notes: also called NMDA receptor GluR1 subunit (so in the source)
Take B1: in experiment [1], the binding result was “no binding”.

B2: SAP102 PDZ 3 subcloned into yeast vector pPC 86 (other, UniProt Q62936 404-484, looked up, not shown: large carriers)
chain: KIILHKGSTGLGFNIVGGEDGEGIFVSFILAGGPADLSGELRRGDRILSVNGVNLRNATHEQAAAALKRAGQSVTIVAQYR
notes: domain: PDZ 3; Limits of the pPC86 construct are not restated; the bait construct of the same domain covers 367 to 452; also called third PDZ domain of SAP102
Turning to B2, the binding result in experiment [2] and in experiment [3] was “no binding” throughout.
